Source: the supplement of paper PMC10567573

B1: TRIM35 (parent)
chain: DKELLCCSCQADPRHQGHRVQPVK

Variants of: B1
Experiment: protein stability index of a GFP-peptide fusion (GPS, HEK-293T) (PSI 1-6); higher = more stable
Conditions: c terminus: a fixed tail appended
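Further: lentivirally expressed fusions sorted by FACS into six bins by GFP to DsRed ratio, PSI derived from sequencing read proportions per bin multiplied by bin number.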

Point of comparison: DKELLCCSCQADPRHQRHRVQPVK, protein stability index 3.84. Against it:
- DKELLCCSCQADPRNQGHRVQPVK — lower, 3.33
- DKELLCCSCQADPRAQGHRVQPVK — lower, 3.48
- DKELLCCSCQADPREQGHRVQPVK — lower, 3.56
- DKELLCCSCQADPRMQGHRVQPVK — lower, 2.96
- DKELLCCSCQADPRIQGHRVQPVK — lower, 2.99
- DKELLCCSCQADPRKQGHRVQPVK — lower, 3.44
- DKELLCCSCQADPRDQGHRVQPVK — higher, 4.23
- DKELLCCSCQADPRSQGHRVQPVK — lower, 3.78
- DKELLCCSCQADPRWQGHRVQPVK — lower, 3.33
- DKELLCCSCQADPRFQGHRVQPVK — lower, 3.62
- DKELLCCSCQADPRCQGHRVQPVK — higher, 4.26
- DKELLCCSCQADPRGQGHRVQPVK — lower, 3.15
- DKELLCCSCQADPRYQGHRVQPVK — lower, 3
- DKELLCCSCQADPRVQGHRVQPVK — lower, 2.95
- DKELLCCSCQADPRPQGHRVQPVK — lower, 3.54
- DKELLCCSCQADPRQQGHRVQPVK — lower, 3.02
- DKELLCCSCQADPRTQGHRVQPVK — lower, 3.57
- DKELLCCSCQADPRLQGHRVQPVK — lower, 3.52
- DKELLCCSCQADPRHQGHYVQPVK — lower, 3.16
- DKELLCCSCQADPRHQGHEVQPVK — higher, 4.33
- DKELLCCSCQADPRHQGHGVQPVK — lower, 3.63
- DKELLCCSCQADPRHQGHPVQPVK — lower, 3.73
- DKELLCCSCQADPRHQGHAVQPVK — lower, 3.62
- DKELLCCSCQADPRHQGHKVQPVK — lower, 3.56
- DKELLCCSCQADPRHQGHHVQPVK — lower, 3.17
- DKELLCCSCQADPRHQGHCVQPVK — lower, 3.63
- DKELLCCSCQADPRHQGHNVQPVK — lower, 3.73
- DKELLCCSCQADPRHQGHFVQPVK — lower, 2.66
- DKELLCCSCQADPRHQGHQVQPVK — lower, 3.67
- DKELLCCSCQADPRHQGHTVQPVK — lower, 3.01
- DKELLCCSCQADPRHQGHIVQPVK — lower, 3.19
- DKELLCCSCQADPRHQGHVVQPVK — the same, 3.84
- DKELLCCSCQADPRHQGHSVQPVK — lower, 3.73
- DKELLCCSCQADPRHQGHLVQPVK — lower, 3.52
- DKELLCCSCQADPRHQGHDVQPVK — higher, 4.79
- DKELLCCSCQADPRHQGHWVQPVK — lower, 2.78
- DKELLCCSCQADPRHQGHMVQPVK — lower, 3.71
- DKELLCCSCQADPRHQGHRVQCVK — higher, 4.52
- DKELLCCSCQADPRHQGHRVQHVK — lower, 3.31
- DKELLCCSCQADPRHQGHRVQMVK — lower, 2.73
- DKELLCCSCQADPRHQGHRVQTVK — higher, 4.03
- DKELLCCSCQADPRHQGHRVQDVK — higher, 4.11
- DKELLCCSCQADPRHQGHRVQKVK — higher, 4.08
- DKELLCCSCQADPRHQGHRVQIVK — lower, 3.04
- DKELLCCSCQADPRHQGHRVQAVK — higher, 3.97
- DKELLCCSCQADPRHQGHRVQSVK — lower, 3.08
- DKELLCCSCQADPRHQGHRVQEVK — higher, 4.53
- DKELLCCSCQADPRHQGHRVQFVK — lower, 3.44
- DKELLCCSCQADPRHQGHRVQRVK — lower, 3.4
- DKELLCCSCQADPRHQGHRVQQVK — higher, 4.04
- DKELLCCSCQADPRHQGHRVQLVK — lower, 2.84
- DKELLCCSCQADPRHQGHRVQNVK — lower, 3.05
- DKELLCCSCQADPNHQGHRVQPVK — higher, 4.13
- DKELLCCSCQADPWHQGHRVQPVK — lower, 2.46
- DKELLCCSCQADPQHQGHRVQPVK — lower, 3.75
- DKELLCCSCQADPSHQGHRVQPVK — lower, 3.58
- DKELLCCSCQADPTHQGHRVQPVK — lower, 3.52
- DKELLCCSCQADPYHQGHRVQPVK — lower, 3.35
- DKELLCCSCQADPEHQGHRVQPVK — higher, 3.85
- DKELLCCSCQADPKHQGHRVQPVK — lower, 3.37
- DKELLCCSCQADPCHQGHRVQPVK — higher, 4.24
- DKELLCCSCQADPVHQGHRVQPVK — lower, 2.95
- DKELLCCSCQADPFHQGHRVQPVK — lower, 3.35
- DKELLCCSCQADPHHQGHRVQPVK — lower, 3.69
- DKELLCCSCQADPPHQGHRVQPVK — higher, 4.18
- DKELLCCSCQADPIHQGHRVQPVK — higher, 4.18
- DKELLCCSCQADPAHQGHRVQPVK — higher, 4.06
- DKELLCCSCQADPLHQGHRVQPVK — lower, 3.43
- DKELLCCSCQADPDHQGHRVQPVK — higher, 4.05
- DKELLCCSCQADPGHQGHRVQPVK — lower, 3.03
- DKELLCCSCQADPMHQGHRVQPVK — higher, 3.97
- DKELLCCSCQADNRHQGHRVQPVK — lower, 3.79
- DKELLCCSCQADLRHQGHRVQPVK — lower, 3.76
- DKELLCCSCQADVRHQGHRVQPVK — lower, 2.8
- DKELLCCSCQADHRHQGHRVQPVK — lower, 3.64
- DKELLCCSCQADRRHQGHRVQPVK — lower, 3.41
- DKELLCCSCQADFRHQGHRVQPVK — lower, 2.31
- DKELLCCSCQADKRHQGHRVQPVK — lower, 3.15
- DKELLCCSCQADIRHQGHRVQPVK — lower, 3.69
- DKELLCCSCQADDRHQGHRVQPVK — lower, 3.44
- DKELLCCSCQADERHQGHRVQPVK — lower, 3.44
- DKELLCCSCQADGRHQGHRVQPVK — lower, 3
- DKELLCCSCQADARHQGHRVQPVK — lower, 3.04
- DKELLCCSCQADMRHQGHRVQPVK — lower, 2.71
- DKELLCCSCQADTRHQGHRVQPVK — lower, 3.34
- DKELLCCSCQADSRHQGHRVQPVK — lower, 1.97
- DKELLCCSCQADYRHQGHRVQPVK — lower, 2.79
- DKELLCCSCQADWRHQGHRVQPVK — lower, 2.31
- DKELLCCSCQADCRHQGHRVQPVK — higher, 4.78
- DKELLCCSCQADQRHQGHRVQPVK — higher, 3.88
- DKELLCCSCQADPRHQGPRVQPVK — lower, 2.6
- DKELLCCSCQADPRHQGARVQPVK — higher, 3.89
- DKELLCCSCQADPRHQGNRVQPVK — higher, 3.98
- DKELLCCSCQADPRHQGLRVQPVK — lower, 3.65
- DKELLCCSCQADPRHQGKRVQPVK — higher, 4.16
- DKELLCCSCQADPRHQGCRVQPVK — lower, 2.75
- DKELLCCSCQADPRHQGGRVQPVK — higher, 4.1
- DKELLCCSCQADPRHQGIRVQPVK — higher, 3.9
- DKELLCCSCQADPRHQGRRVQPVK — lower, 3.6
- DKELLCCSCQADPRHQGVRVQPVK — lower, 2.73
- DKELLCCSCQADPRHQGQRVQPVK — lower, 3.29
- DKELLCCSCQADPRHQGTRVQPVK — higher, 3.88
- DKELLCCSCQADPRHQGSRVQPVK — higher, 4.38
- DKELLCCSCQADPRHQGDRVQPVK — higher, 3.91
- DKELLCCSCQADPRHQGWRVQPVK — higher, 4.14
- DKELLCCSCQADPRHQGMRVQPVK — higher, 3.97
- DKELLCCSCQADPRHQYHRVQPVK — lower, 3.37
- DKELLCCSCQADPRHQWHRVQPVK — lower, 2.67
- DKELLCCSCQADPRHQCHRVQPVK — higher, 4.33
- DKELLCCSCQADPRHQAHRVQPVK — lower, 3.19
- DKELLCCSCQADPRHQKHRVQPVK — higher, 3.99
- DKELLCCSCQADPRHQEHRVQPVK — higher, 4.17
- DKELLCCSCQADPRHQIHRVQPVK — lower, 3.48
- DKELLCCSCQADPRHQNHRVQPVK — lower, 3.82
- DKELLCCSCQADPRHQHHRVQPVK — higher, 3.95
- DKELLCCSCQADPRHQFHRVQPVK — lower, 3.49
- DKELLCCSCQADPRHQDHRVQPVK — higher, 3.88
- DKELLCCSCQADPRHQQHRVQPVK — lower, 3.59
- DKELLCCSCQADPRHQLHRVQPVK — lower, 3.35
- DKELLCCSCQADPRHQSHRVQPVK — lower, 3.66
- DKELLCCSCQADPRHQMHRVQPVK — lower, 2.88
- DKELLCCSCQADPRHQPHRVQPVK — lower, 3.12
- DKELLCCSCQADPRHQTHRVQPVK — lower, 3.78
- DKELLCCSCQADPRHQVHRVQPVK — lower, 3.08
- DKELLCCSCQADPRHQGHRVRPVK — lower, 3.71
- DKELLCCSCQADPRHQGHRVDPVK — higher, 4.05
- DKELLCCSCQADPRHQGHRVKPVK — lower, 3.74
- DKELLCCSCQADPRHQGHRVAPVK — lower, 3.79
- DKELLCCSCQADPRHQGHRVPPVK — lower, 3.56
- DKELLCCSCQADPRHQGHRVFPVK — lower, 2.79
- DKELLCCSCQADPRHQGHRVYPVK — lower, 2.91
- DKELLCCSCQADPRHQGHRVMPVK — lower, 3.68
- DKELLCCSCQADPRHQGHRVEPVK — higher, 4.26
- DKELLCCSCQADPRHQGHRVGPVK — lower, 3.28
- DKELLCCSCQADPRHQGHRVLPVK — lower, 3.15
- DKELLCCSCQADPRHQGHRVNPVK — higher, 4
- DKELLCCSCQADPRHQGHRVCPVK — higher, 3.92
- DKELLCCSCQADPRHQGHRVSPVK — higher, 3.96
- DKELLCCSCQADPRHQGHRVIPVK — lower, 2.65
- DKELLCCSCQADPRHQGHRVWPVK — lower, 2.52
- DKELLCCSCQADPRHQGHRVTPVK — lower, 1.96
- DKELLCCSCQADPRHQGHRVHPVK — lower, 3.61
- DKELLCCSCQAWPRHQGHRVQPVK — lower, 3.48
- DKELLCCSCQAQPRHQGHRVQPVK — lower, 3.4
- DKELLCCSCQAYPRHQGHRVQPVK — lower, 2.75
- DKELLCCSCQASPRHQGHRVQPVK — lower, 3.06
- DKELLCCSCQATPRHQGHRVQPVK — lower, 3.01
- DKELLCCSCQARPRHQGHRVQPVK — lower, 3.21
- DKELLCCSCQAPPRHQGHRVQPVK — lower, 2.78
- DKELLCCSCQAVPRHQGHRVQPVK — lower, 3.21
- DKELLCCSCQADPRHHGHRVQPVK — lower, 3.58
- DKELLCCSCQADPRHGGHRVQPVK — lower, 3.82
- DKELLCCSCQADPRHRGHRVQPVK — lower, 3.34
- DKELLCCSCQADPRHDGHRVQPVK — higher, 3.98
- DKELLCCSCQADPRHTGHRVQPVK — lower, 3.23
- DKELLCCSCQADPRHKGHRVQPVK — higher, 3.96
- DKELLCCSCQADPRHWGHRVQPVK — lower, 2.67
- DKELLCCSCQADPRHAGHRVQPVK — lower, 3.52
- DKELLCCSCQADPRHSGHRVQPVK — lower, 3.72
- DKELLCCSCQADPRHNGHRVQPVK — lower, 3.33
- DKELLCCSCQADPRHCGHRVQPVK — higher, 4.54
- DKELLCCSCQADPRHIGHRVQPVK — lower, 3.82
- DKELLCCSCQADPRHFGHRVQPVK — lower, 2.32
- DKELLCCSCQADPRHMGHRVQPVK — lower, 2.66
- DKELLCCSCQADPRHPGHRVQPVK — lower, 3.66
- DKELLCCSCQADPRHYGHRVQPVK — lower, 2.57
- DKELLCCSCQADPRHEGHRVQPVK — higher, 3.87
- DKELLCCSCQADPRHLGHRVQPVK — lower, 3.43
- DKELLCCSCQADPRHVGHRVQPVK — lower, 2.88
- DKELLCCSCQADPRHQGHRIQPVK — lower, 3.44
- DKELLCCSCQADPRHQGHRCQPVK — higher, 4.46
- DKELLCCSCQADPRHQGHRSQPVK — lower, 3.71
- DKELLCCSCQADPRHQGHRQQPVK — higher, 4.11
- DKELLCCSCQADPRHQGHRPQPVK — higher, 4.54
- DKELLCCSCQADPRHQGHRAQPVK — lower, 3.13
- DKELLCCSCQADPRHQGHREQPVK — higher, 4.04
- DKELLCCSCQADPRHQGHRHQPVK — higher, 4.69
- DKELLCCSCQADPRHQGHRGQPVK — higher, 4.15
- DKELLCCSCQADPRHQGHRLQPVK — higher, 3.91
- DKELLCCSCQADPRHQGHRKQPVK — lower, 3.5
- DKELLCCSCQADPRHQGHRDQPVK — higher, 4.14
- DKELLCCSCQADPRHQGHRYQPVK — lower, 3.04
- DKELLCCSCQADPRHQGHRNQPVK — higher, 4.13
- DKELLCCSCQADPRHQGHRWQPVK — lower, 2.76
- DKELLCCSCQADPRHQGHRTQPVK — lower, 3.5
- DKELLCCSCQADPRHQGHRFQPVK — lower, 3.48
- DKELLCCSCQADPRHQGHRRQPVK — lower, 3.5
